# Measurements: the DeepSol protein solubility set
# Test: soluble on expression in E. coli; label from the status in PepcDB or PDB records
row,Sequence,soluble on expression in E. coli
1,MSLGNDRWRAEFPLERIGTYEFRVEAWRDVFATLHADLEKKRAANTVLPVDVQEAVAAVQAAQARSDGALAERLQTVLTRIGAQSEPLQQLAIVLEPDTAQAMALADDKPFRSEYPVTFRVESERRAAHFSSWYELFPRSQSGDASRHGTFDDVIKRLPHIRAMNFDVLYMPPIHPIGLNNRKGRNNSVTAVEGEPGSPYAIGATDGGHTEVHAELGGLEGFRRLIEAARAQGLEVALDFAIQCAPDHPWLKEHKDWFTWRADGSIPYAENPPKKYQDIVNVDFYASGAVPDLWNTLRDAVLFWVNEGVTLFRVDNPHTKPFPFWEWLIADVRGRRPDVVFLSEAFTRPKMMYRLAKCGFSQSYTYFTWRNHKHELQAYVEELNDGVPRECFRPHFFVNTPDINPLFLQTSGRNGHLIRAALATTLSGLWGMYQGFELCEATPLAPGKEEYLDSEKFQLRAWPERVPGDIVEEITRFNQLRRMHPELQSHLGTRFYQAHNDQVLYYGKFLDAGYLSRSRSMVLVAINLDPHAGQDADIEIPLWELGLPDHASVAVEDLWDGHRFAWHGKYQHIRLEATRPFALWRIRAGEGHHHHHH,not soluble
2,MASTSKPAASTTAIKKYYFYVLLCADQTLYGGFTDNLQRRLATHNAGKGAKYTRVRSRRPLQLIYHETFTDKSSALKAEYAFKHQSRAAKLKYLSAHDVKILEHHHHHH,not soluble
3,SLHAAKDEVRSRLMPINRAYNVEKLIEAIQYYQEKTNRRVTFEYGLFGGVNDQLEHARELAHLIKGLNCHVNLIPVNHVPERNYVKTAKNDIFKFEKELKRLGINATIRREQGSDIDAACGQLRAKERQVETR,soluble
4,MKPNITWGLQKIQAHGIADNTIYATEGTQIIFTVTSPWIPVFKVNDDVKIALTLTRHEEAWWIINQSTEYCCTVNDQIVEPHHRMRLNEGDLIEWGLSS,not soluble
5,MSKNCKSCKDLKNRGIDVDCCFEIGDKECASLGDDKGFNGKKNDCQDMHDLNDCLLGRADSALDIHDDCDWKGYLKKLVSTLYNLQKMTICAICGIWKKIHWIEEQIEKIWKKIAKMEDDIDNIASQNWEINTRYGIQESTKGMSVSINRGNGDFIFRWKDWGDAEQTQYLGEGEIRGTVNFGMRPSSNASFDWQVRDVVIQNLSYKTNNIRSVPFTLHLYLTRAGEQEIYTKSHDTTKSFNDNINKTLKLNNNGNVGISSSSGWLQFLEFFNDGPVADDRANLQIEFKNNGKPKPPRYI,not soluble
6,MSWLRTELWTAEVVYTGFGTPMLRGALAVQGGFVVGQGSLEELRARFPEGEVVHKGLALLPPPVNAHTHLDLSLLPLYRGPFAGFLSHVVAHRERRGLEGAKRGLEELLASGVGAFADIVFKDEVMDFLLQESPLPGVAFYEVFAPEPSLAEEVYRAVRRKVEAWRRREGKVKVGLSPHAPYSVSPPLLKRLAEWARAEGLPLMVHAAESPEEVAFLLRGEGPLREVYGRFAKTPWTPPGTTPVRHLHALGVLGPTTLLVHGVQVDEEEVGLLAETGTKVVLCPRSNRNLEVGEAPLALYAKHGVELALGTDSRGSSPDLDVKNEARFLWGRAEPRLLVRALTRGGYRALGLPTPRLTRGTPLSLVHFL,soluble
7,MGSDKIHHHHHHMKQLVGIPESMLIPLIARAKEYENEKPIIKDALSKKIFDGLDDMYKNVTCDDMSQIGISIRTVIIDCVTKRLIKDNKDLIVVNIGCGLDTRFQRFNKEKISWIDLDVPESIEIRKTFFKESNSYKMISKSMLDYSWIDDVKNYKFFNSKSDILFIIEGVLMYFDESVMTQLLDTIIKKMGDHNLTFAIEFCSKTIANNTKRHQSVSKLSSQPVFKYGYNDLKKLNEILPNTIRVIHEYNYFDYYKNRWGLFGYCRFIPYLKKRLNNKIVLMKYKVPKRQRH,not soluble
8,MRRSGPELWKTLTSVSKSGQKKGRRNTRQPVRPLNRFYRIGSSPMKIEFAGLNAPIRMRETENQNLMSIAEQTEDEIRDSMGGTKKILEERDTGKKKRNREKLHPMERGFSGTQLVGQKLGAPPPLDGVNFDDFETYCLEVKRTSNMTNVFGRVHTMSALVVTGNGRGLAGYAVGKAPIHRTTTAIINGMGMASRKLFHVELHEGRTIYQDFYAECRNTRVFAQRRPRGFGLTCHPRLIKICEAIGIKDIYVKVEGSTKNYLALTHAFVTGLLNQETHQQLAERKGLHVVEMSPSRHFLPQIVASPISTELKTEETLEALDRLNLDDFYGEGRYPLRKPKSLPFFSNLEGHLDARWRKHPFRNQESTMIRLIADNMVPRWTRDARAAWADQRNERMTTGVEPMPLGIGLSHVVPKKDD,not soluble
9,MNTNMVASELGVSAKTVQRWVKQLNLPAERNELGHYSFTAEDVKVLKSVQKQISEGTAIQDIHLPKSAKKRTGFLVQKTSSDTERRIEQLEQKLDTLLQQRQDESELMARMSELERQLKQKADEGVSYQLLQHRREIDDILADLQSLTSQMKEFTAHSIPETAAASEKTKTRKKPLLSLFKFQTLEHHHHHH,not soluble
10,MESKKRSSDKKSTEVDSMSDKESLYVSASDQPPAEITIKLEKDTKRKITIISEVENPKRARRGSADLRRQAIVNSAIRSAQSTASSRSRSRSRSRSRSTMNQQIRLARTRSASGGKLRRSRSARRRSPSSSASRSRSRSTSRTRAQSIPIRYRDRPEKIEKPIQPLPPLRLPTHLTKKSSVGSKKLPPPDCINLPSPLFILTEQQVIGASEKKTVQFVTKVLLTSKKLSLDDRKLLFAEMVEAEYVGTSRSSTDLNKSSDDEPEEEFATKIHYSSKGIYIHTVQNVRKIRSGKTSSITEEKSYANICKTKISGDHGKSTEGFLNVQCSETISVVDQKYIRSEEFKIGLTGVNVSGNVSINSSKTTFDPTKTITFSEDLMFDSKNIGITIRHSSVAEMKEMWHHEMGSFGEETSEYRELKFFFDEKKKDDNKTVGKSVVSILQGTKPSAPPASTSSSSKNSSSINSPKTPNISGSSRRSRSRAKRHKALQKRDSKTNRTPSPDRQSCKKDARPDQDPIKLSEIKVSEHVDSTGNETFYQSFPKATSTPKSPASSLNSSVLESKVKNSMQKTPDEGPSRRGAMSIRERSVSRNGDNEIDLDKSLSLKKPSASKNLASLLEKKEEARKTDVTSSMISSKPPTSPGTSVYMYNTGSANSTFMSAKDLHKERVAASTGPRSASKSPKGTLRVKETKVIREVRQEDGKPPEISEKKEETVKEEKVNLSERLRARSRASSPATPTLKRTFNQTDESNIVTLSAVKETHQTLEMTPIKVNSETVPSTSYGQRAFPESVQLDMLIDKKRLVLNVNFMLLAEKHPEVEILGFTFKGQKLWEKSSEWNLTSANTTSHTKTIARQASNILGDEEKKDEEQK,not soluble
11,SSHGHSHGGGGCRCAAEREEPPEQRGLAYGLYLRIDLERLQCLNESREGSGRGVFKPWEERTDRSKFVESDADEELLFNIPFTGNVKLKGIIIMGEDDDSHPSEMRLYKNIPQMSFDDTEREPDQTFSLNRDLTGELEYATKISRFSNVYHLSIHISKNFGADTTKVFYIGLRGEWTELRRHEVTICNYEASANPADHRVHQVTPQTHFIS,soluble
12,MSLFCLPLEMRNHWHFFSLFTNLPRKSKWHRASEFFFPLLMSEIEDFR,soluble
13,MEKLEALKRLFPGKVDLSESERLRHGKDEGYPEARPVLAVVYPEGVEDVQKALRWAREWGVAVIPFGAGTSLEGHLYPVREAISLDLSRMNRVLEVRPQDFSCVVEPGLTRKALNEALKGTGLFFPVDPGADASLGGMAATNASGTTTVRYGGMRQNVLALQVVLASGEVLELGRGVRKTSSGYDLKDLFIGSEGTLGVITRLTLRLHPLPEHVHTLRVFFPGVEEAAEASYRIMASGLPVARLELLDELAMRALNRYLKAGFPERPALFLEFHASTKEALEAERASALELVREAGALEVEAATTEEERRRQWEARHQAYWALVHLFPGHRFMITDTAVPLSRLPEMVRFAQGLLREMGLTGNILGHVGDGNFHTLIPVLPEDYPKAEAYAERLVEKALELGGTCTAEHGVGLRKRKFLPKEHGPALEWMRRLKALFDPEGLLNPGKVV,soluble
14,MGSDKIHHHHHHMNGFSQLEGLRGHPSVVRVIGHRGARGVMPENTLEGFAFTLAAGVRALEFDVVMTADGVPVVTHNHHLANAMTRDGQGHWLTGAERQVAEMTYAEIRALDVGGLDGRTVYGRRFPDQAFLTGIHVPRLGELLDLCAGYGDQAPYLLLELKSDPALMHDHAARAEMVAAVLADVRRYRMEPRTVMHSFDWALLGECRRQAPDLPTSYLSQLPENADDPGEDSAKPVGPDYDRMTESLPQAVASAGGQLWCPYFLDVTPELVAEAHDLGLIVLTWTVNEPEDIRRMATTGVDGIVTDYPGRTQRILIDMGLSWT,not soluble
15,MEGLKLSEAELMIFIHPSQSRNVFQGICRELSSLLFQYNETFDGVLLAYDATVKSKQAKILTGLHPYFGVRVNTRLLLFDPKPKSFVEGKIVKISPESIHVIVLGFSAAVITDVDIREEFKYRVRDGEGSFVSRSHKRHALKLGTMLRLQVQSFDEEVMHIAGSLLPENTGCVKWLEKKSEEALPTDRDHKRRKLA,not soluble
16,MAQRFTDEVAIVTGSSNGIGRATAILLASEGAKVTITGRNAERLEESRQALLKVGVPSGHINSVVADVTTGAGQDVLIDSTLKKFGKINILINNAGALIVDPEGKTNTSTGVETCLKTFQLNFQSVVEMTQKIRPHLANTHGEIVNVSSVGAGPAAENRFPYYSAAKAALDQYSRNTAIDLIPDGIRVNIVQPGFVATGFTTAASGMSPDASAKMYEGIGANTSCIPAGYCGRPEHLASVIAFLADRKASEYIVGQTIIADGGTTLVRGRNVALATRRAE,not soluble
17,MGSDKIHHHHHHACVATAFSQTIEKENKIDVQKKNSSAEVSGRQLPEAKNIEPKLPDIEAKKLATDDKSMQTYGLTPSSPASGLSPYSYDFPALLESNPTLTDFYNFRQHSMNGQLSFIGSAEQKTYLGLGQYVAVNAGIRWIPSQRFFVEAGGDLSRQFYLALPIARQDIAGIYTRMRYSLVRNVRLNVWGQYFMGGNTPPPAYNPLFPHTGVGASISVDVKKNTEVSVGAEYQYDKKSREWKMETSGRVSIGF,not soluble
18,MAGCSMMKVDRTFPDLKEIPVDLATRFRQMIEWLEIANSECRLTPYKKISHIYQIFHSQGVLECLFRRGEDDISFMIEASVYLLDHPLDGSRSSSPTICDFAGVLPTIFVTFRNKRLGTMVSGASVEFMEFAHHIQEHIHRTSFPEIRTAEIHKISLIDVRFGNMDRNAKNIIVKVEDNIPHFVPIDHEMCFINTGQNYNLCKPYWLSLEDSSIYEA,soluble
19,MALPGNYAPEVLLPQIAEINARIYADVNNGVYKAGFATRQSVYEKAVMVLFRCMDELEQLLSRQRYLIGNCITEADWRIFTTLIRFDPVYHGHFKCNLRRLVDYPNLWAYTRELYQWPGVAETVNMQHIKEHYYRSHPTINLEHHHHHH,not soluble
